Where a chain is given by its changes, count along the chain named. Numbers in names are those of the source.
B1: wild-type FtsY(47-497) (domain or fragment, Escherichia coli, UniProt P10121 47-497, looked up)
chain: ASEQAVEEQPQAHTEAEAETFAADVVEVTEQVAESEKAQPEAEVVAQPEPVVEETPEPVAIEREELPLPEDVNAEAVSPEEWQAEAETVEIVEAAEEEAAKEEITDEELETALAAEAAEEAVMVVPPAEEEQPVEEIAQEQEKPTKEGFFARLKRSLLKTKENLGSGFISLFRGKKIDDDLFEELEEQLLIADVGVETTRKIITNLTEGASRKQLRDAEALYGLLKEEMGEILAKVDEPLNVEGKAPFVILMVGVNGVGKTTTIGKLARQFEQQGKSVMLAAGDTFRAAAVEQLQVWGQRNNIPVIAQHTGADSASVIFDAIQAAKARNIDVLIADTAGRLQNKSHLMEELKKIVRVMKKLDVEAPHEVMLTIDASTGQNAVSQAKLFHEAVGLTGITLTKLDGTAKGGVIFSVADQFGIPIRYIGVGERIEDLRPFKADDFIEALFARED
notes: FtsY, SRP receptor, Escherichia coli, residues 47-497; also called SRP receptor; SR; source: expressed and purified as in Powers and Walter 1997; Peluso et al. 2001
B2: FtsY A335(140)W (domain or fragment, Escherichia coli, UniProt P10121 47-497, looked up)
chain: B1 chain with A289W
notes: FtsY, Escherichia coli, residues 47-497, with A335W; number in parentheses is the T. aquaticus number; also called mutant FtsY A335(140)W; Class II mutant; source: expressed and purified as wild-type FtsY (Powers and Walter 1997; Peluso et al. 2001)

Experiments:
Ffh [1] = molecular target: T1, Ffh (UniProt P0AGD7 1-453); assay: other fluorescence titration; tryptophan fluorescence of FtsY, time course at 335 nm; 1 uM mutant or wild-type FtsY, 2 uM SRP, 100 uM GppNHp, complex formation started by addition of Mg2+; details: both partners purified
T1 construct: Ffh, the GTPase of the bacterial signal recognition particle; The methods of the fluorescence experiment name 'SRP' (2 uM), not Ffh alone; also called SRP GTPase; wild-type Ffh
T1 sequence (looked up): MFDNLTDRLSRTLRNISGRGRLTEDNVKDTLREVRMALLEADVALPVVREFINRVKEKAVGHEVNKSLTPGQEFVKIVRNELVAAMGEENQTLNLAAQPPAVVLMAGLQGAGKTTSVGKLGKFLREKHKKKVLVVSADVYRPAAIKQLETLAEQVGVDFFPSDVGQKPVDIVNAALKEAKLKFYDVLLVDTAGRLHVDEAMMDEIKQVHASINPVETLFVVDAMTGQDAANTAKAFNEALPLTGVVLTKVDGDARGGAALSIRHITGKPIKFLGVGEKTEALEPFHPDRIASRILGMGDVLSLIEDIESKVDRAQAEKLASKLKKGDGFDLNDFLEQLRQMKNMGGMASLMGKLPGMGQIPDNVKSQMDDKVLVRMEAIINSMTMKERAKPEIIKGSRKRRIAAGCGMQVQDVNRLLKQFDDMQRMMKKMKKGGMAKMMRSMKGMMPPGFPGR

Ffh [2] = molecular target: T1, Ffh; assay: GTPase inhibition (competition) assay; mutant FtsY varied as inhibitor of the GTPase reaction of Ffh with subsaturating wild-type FtsY; under these conditions Ki equals Kd of the Ffh-FtsY(mt) complex; fit to equation 3; details: both partners purified

Binder | koff (Ffh [1]) | kon (Ffh [1]) | Ki (Ffh [2])
B1 | 0.0036 s⁻¹ | 63600 M⁻¹ s⁻¹ | 
B2 | 0.0042 s⁻¹ | 63400 M⁻¹ s⁻¹ | 16 nM

— paper PMC517823, “Mechanism of Association and Reciprocal Activation of Two GTPases” (PLoS Biology, 2004)
